Substrate: C[C@H](O)C(=O)O
Assay: purified protein
Settings: 20 mM HEPES pH 7.4, 50 μM Ampliflu Red, 0.1 U/mL HRP, mean ± SEM, n = 3, lactate enantiomer not given

B1: lactate oxidase (LOX, EC 1.1.3.2) (Aerococcus viridans ATCC 11563 = CCUG 4311) (protein)
chain: MNNNDIEYNAPSEIKYIDVVNTYDLEEEASKVVPHGGFNYIAGASGDEWTKRANDRAWKHKLLYPRLAQDVEAPDTSTEILGHKIKAPFIMAPIAAHGLAHTTKEAGTARAVSEFGTIMSISAYSGATFEEISEGLNGGPRWFQIYMAKDDQQNRDILDEAKSDGATAIILTADSTVSGNRDRDVKNKFVYPFGMPIVQRYLRGTAEGMSLNNIYGASKQKISPRDIEEIAGHSGLPVFVKGIQHPEDADMAIKRGASGIWVSNHGARQLYEAPGSFDTLPAIAERVNKRVPIVFDSGVRRGEHVAKALASGADVVALGRPVLFGLALGGWQGAYSVLDYFQKDLTRVMQLTGSQNVEDLKGLDLFDNPYGYEY
Km: 1620 ± 480 µM | Vmax: 22 µmol/min/mg
